Series [1] concerns the molecule itself. Put plainly: SEC-MALS; room temperature; 50 mM MES pH 6.0, 150 mM KCl, 5 mM CaCl2, 5 mM MgCl2, 2% glycerol, 0.05% DDM; 1–1.5 mg/ml; molar mass corrected for detergent. For orientation: In gel filtration, larger molecules generally elute earlier.
The target in series [2] is T1, His6-Ig 1–2 (NOMO1 Ig-like domains 1–2) (human).
T1 chain: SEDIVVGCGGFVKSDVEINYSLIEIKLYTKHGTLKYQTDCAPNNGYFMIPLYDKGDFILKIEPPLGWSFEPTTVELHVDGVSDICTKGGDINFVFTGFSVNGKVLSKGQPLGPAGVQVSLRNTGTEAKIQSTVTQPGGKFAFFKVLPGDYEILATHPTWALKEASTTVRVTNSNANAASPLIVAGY
The series is described as follows: ITC; VP-ITC, 25°C; 300 µM His6-Ig 10–11 injected from the syringe into the cell with 20 µM His6-Ig 1–2 or His6-Ig 1–2^3-Mut; 50 mM Tris-HCl pH 7.5, 100 mM NaCl, 5 mM MgCl2, 5 mM CaCl2; n = 3. As to conditions: both partners purified. For orientation: ITC needs no label: the signal is the heat of the interaction.

Series [3] addresses T2, His6-Ig 10–11 (NOMO1 Ig-like domains 10–11) (human).
T2 chain: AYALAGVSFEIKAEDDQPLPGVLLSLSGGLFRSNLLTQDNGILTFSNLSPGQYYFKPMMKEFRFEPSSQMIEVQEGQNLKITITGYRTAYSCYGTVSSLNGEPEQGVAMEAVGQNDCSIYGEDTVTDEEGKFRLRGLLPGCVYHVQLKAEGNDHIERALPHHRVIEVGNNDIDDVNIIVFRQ
Put plainly: ITC.

Values joined by “and” are separate entries in the source; they are usually repeats but may differ in a detail not shown here. Equal values may be shown once.

B1: FL WT NOMO (NOMO1^WT-FLAG) (natural protein, human, UniProt Q15155 32-1222, looked up)
chain: SEDIVVGCGGFVKSDVEINYSLIEIKLYTKHGTLKYQTDCAPNNGYFMIPLYDKGDFILKIEPPLGWSFEPTTVELHVDGVSDICTKGGDINFVFTGFSVNGKVLSKGQPLGPAGVQVSLRNTGTEAKIQSTVTQPGGKFAFFKVLPGDYEILATHPTWALKEASTTVRVTNSNANAASPLIVAGYNVSGSVRSDGEPMKGVKFLLFSSLVTKEDVLGCNVSPVPGFQPQDESLVYLCYTVSREDGSFSFYSLPSGGYTVIPFYRGERITFDVAPSRLDFTVEHDSLKIEPVFHVMGFSVTGRVLNGPEGDGVPEAVVTLNNQIKVKTKADGSFRLENITTGTYTIHAQKEHLYFETVTIKIAPNTPQLADIIATGFSVCGQISIIRFPDTVKQMNKYKVVLSSQDKDKSLVTVETDAHGSFCFKAKPGTYKVQVMVPEAETRAGLTLKPQTFPLTVTNRPMMDVAFVQFLASVSGKVSCLDTCGDLLVTLQSLSRQGEKRSLQLSGKVNAMTFTFDNVLPGKYKISIMHEDWCWKNKSLEVEVLEDDMSAVEFRQTGYMLRCSLSHAITLEFYQDGNGRENVGIYNLSKGVNRFCLSKPGVYKVTPRSCHRFEQAFYTYDTSSPSILTLTAIRHHVLGTITTDKMMDVTVTIKSSIDSEPALVLGPLKSVQELRREQQLAEIEARRQEREKNGNEEGEERMTKPPVQEMVDELQGPFSYDFSYWARSGEKITVTPSSKELLFYPPSMEAVVSGESCPGKLIEIHGKAGLFLEGQIHPELEGVEIVISEKGASSPLITVFTDDKGAYSVGPLHSDLEYTVTSQKEGYVLTAVEGTIGDFKAYALAGVSFEIKAEDDQPLPGVLLSLSGGLFRSNLLTQDNGILTFSNLSPGQYYFKPMMKEFRFEPSSQMIEVQEGQNLKITITGYRTAYSCYGTVSSLNGEPEQGVAMEAVGQNDCSIYGEDTVTDEEGKFRLRGLLPGCVYHVQLKAEGNDHIERALPHHRVIEVGNNDIDDVNIIVFRQINQFDLSGNVITSSEYLPTLWVKLYKSENLDNPIQTVSLGQSLFFHFPPLLRDGENYVVLLDSTLPRSQYDYILPQVSFTAVGYHKHITLIFNPTRKLPEQDIAQGSYIALPLTLLVLLAGYNHDKLIPLLLQLTSRLQGVRALGQAASDNSGPEDAKRQAKKQKTRRT
notes: NOMO1 (nodal modulator 1), human, full length; Results and legend call it NOMO-FLAG, the methods Flag-NOMO^WT: the end of the tag is not clear; also called WT NOMO-FLAG; Flag-NOMO^WT; source: Expi293F, transfected, purified (anti-FLAG M2 beads, FLAG peptide elution, SEC) in DDM
As usually defined, the stoichiometry N is a count of units in the complex or per binding partner. Regarding B1, the “stoichiometry N” value in series [1] amounted to 2.

B2: NOMOr^4-Mut-FLAG (FL NOMO1 K66E, D70K, D121K, K931E) (natural protein, human, UniProt Q15155 32-1222, looked up)
chain: SEDIVVGCGGFVKSDVEINYSLIEIKLYTKHGTLEYQTKCAPNNGYFMIPLYDKGDFILKIEPPLGWSFEPTTVELHVDGVSDICTKGGKINFVFTGFSVNGKVLSKGQPLGPAGVQVSLRNTGTEAKIQSTVTQPGGKFAFFKVLPGDYEILATHPTWALKEASTTVRVTNSNANAASPLIVAGYNVSGSVRSDGEPMKGVKFLLFSSLVTKEDVLGCNVSPVPGFQPQDESLVYLCYTVSREDGSFSFYSLPSGGYTVIPFYRGERITFDVAPSRLDFTVEHDSLKIEPVFHVMGFSVTGRVLNGPEGDGVPEAVVTLNNQIKVKTKADGSFRLENITTGTYTIHAQKEHLYFETVTIKIAPNTPQLADIIATGFSVCGQISIIRFPDTVKQMNKYKVVLSSQDKDKSLVTVETDAHGSFCFKAKPGTYKVQVMVPEAETRAGLTLKPQTFPLTVTNRPMMDVAFVQFLASVSGKVSCLDTCGDLLVTLQSLSRQGEKRSLQLSGKVNAMTFTFDNVLPGKYKISIMHEDWCWKNKSLEVEVLEDDMSAVEFRQTGYMLRCSLSHAITLEFYQDGNGRENVGIYNLSKGVNRFCLSKPGVYKVTPRSCHRFEQAFYTYDTSSPSILTLTAIRHHVLGTITTDKMMDVTVTIKSSIDSEPALVLGPLKSVQELRREQQLAEIEARRQEREKNGNEEGEERMTKPPVQEMVDELQGPFSYDFSYWARSGEKITVTPSSKELLFYPPSMEAVVSGESCPGKLIEIHGKAGLFLEGQIHPELEGVEIVISEKGASSPLITVFTDDKGAYSVGPLHSDLEYTVTSQKEGYVLTAVEGTIGDFKAYALAGVSFEIKAEDDQPLPGVLLSLSGGLFRSNLLTQDNGILTFSNLSPGQYYFKPMMEEFRFEPSSQMIEVQEGQNLKITITGYRTAYSCYGTVSSLNGEPEQGVAMEAVGQNDCSIYGEDTVTDEEGKFRLRGLLPGCVYHVQLKAEGNDHIERALPHHRVIEVGNNDIDDVNIIVFRQINQFDLSGNVITSSEYLPTLWVKLYKSENLDNPIQTVSLGQSLFFHFPPLLRDGENYVVLLDSTLPRSQYDYILPQVSFTAVGYHKHITLIFNPTRKLPEQDIAQGSYIALPLTLLVLLAGYNHDKLIPLLLQLTSRLQGVRALGQAASDNSGPEDAKRQAKKQKTRRT
notes: NOMO1, human, full length, four charge-reversal mutations at the Ig 1/10/11 interface; Results and legend call it -FLAG, the methods Flag-NOMO^4-Mut: the end of the tag is not clear; also called NOMO^4Mut-FLAG; Flag-NOMO^4-Mut; source: Expi293F, transfected, purified (anti-FLAG M2 beads, FLAG peptide elution, SEC) in DDM
As to B2, in series [1], the “stoichiometry N” value turned out to be 2.

B3: His6-Ig 10–11 (NOMO1 Ig-like domains 10–11) (domain or fragment)
chain: AYALAGVSFEIKAEDDQPLPGVLLSLSGGLFRSNLLTQDNGILTFSNLSPGQYYFKPMMKEFRFEPSSQMIEVQEGQNLKITITGYRTAYSCYGTVSSLNGEPEQGVAMEAVGQNDCSIYGEDTVTDEEGKFRLRGLLPGCVYHVQLKAEGNDHIERALPHHRVIEVGNNDIDDVNIIVFRQ
modifications: N-terminal His6 tag omitted; limits not given, set from Ig fold boundaries and the ~20 kD size of Ig 10-11 / N-terminal His6 tag omitted; limits not given, taken from signal peptide end to the Ig
Broadly, the Kd is the free concentration of one partner at which half of the binding sites on the other are occupied at equilibrium, for simple one-to-one binding. For B3, the affinity in series [2], expressed as Kd, was 1.83 ± 0.84 µM.

B4: His6-Ig 1–2 (NOMO1 Ig-like domains 1–2) (domain or fragment)
chain: SEDIVVGCGGFVKSDVEINYSLIEIKLYTKHGTLKYQTDCAPNNGYFMIPLYDKGDFILKIEPPLGWSFEPTTVELHVDGVSDICTKGGDINFVFTGFSVNGKVLSKGQPLGPAGVQVSLRNTGTEAKIQSTVTQPGGKFAFFKVLPGDYEILATHPTWALKEASTTVRVTNSNANAASPLIVAGY
modifications: N-terminal His6 tag omitted; limits not given, taken from signal peptide end to the Ig 2/Ig 3 boundary N-terminal His6 tag omitted; limits not given, set from Ig fold boundaries and the ~20 kD size of Ig 10-11
As to B4, the Kd in series [3] is 2.8 µM and 1.4 µM and 1.3 µM.

Source of the values: article PMC12262048, “Nodal modulator (NOMO) is a force-bearing transmembrane protein required for muscle differentiation” (The Journal of Cell Biology, 2025).
